Measured values as given in PMC3814156 (Molecular Biology of the Cell, 2013).

Biological target: ezrin FERM domain (residues 1–298), untagged (UniProt P15311 1-298)
Assay: pull-down

Chain of ezrin FERM domain (residues 1–298), untagged (P15311 1-298): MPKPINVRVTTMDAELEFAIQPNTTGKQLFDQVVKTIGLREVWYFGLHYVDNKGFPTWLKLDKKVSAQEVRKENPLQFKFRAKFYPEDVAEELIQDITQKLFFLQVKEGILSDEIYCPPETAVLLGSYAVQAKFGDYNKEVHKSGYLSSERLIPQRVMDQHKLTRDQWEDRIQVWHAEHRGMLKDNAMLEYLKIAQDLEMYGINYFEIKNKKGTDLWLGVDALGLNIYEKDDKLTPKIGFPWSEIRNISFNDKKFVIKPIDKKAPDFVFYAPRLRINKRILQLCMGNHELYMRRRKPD

B1: SUMO-tagged EBP50 (natural protein, human, UniProt O14745 1-358, looked up)
chain: MSADAAAGAPLPRLCCLEKGPNGYGFHLHGEKGKLGQYIRLVEPGSPAEKAGLLAGDRLVEVNGENVEKETHQQVVSRIRAALNAVRLLVVDPETDEQLQKLGVQVREELLRAQEAPGQAEPPAAAEVQGAGNENEPREADKSHPEQRELRPRLCTMKKGPSGYGFNLHSDKSKPGQFIRSVDPDSPAEASGLRAQDRIVEVNGVCMEGKQHGDVVSAIRAGGDETKLLVVDRETDEFFKKCRVIPSQEHLNGPLPVPFTNGEIQKENSREALAEAALESPRPALVRSASSDTSEELNSQDSPPKQDSTAPSSTSSSDPILDFNISLAMAKERAHQKRSSKRAPQMDWSKKNELFSNL
With B1 the “half-life of dissociation from ezrin FERM beads” value was roughly 10 min.

B2: SUMO-tagged E3KARP (natural protein, human, UniProt Q15599 1-337, looked up)
chain: MAAPEPLRPRLCRLVRGEQGYGFHLHGEKGRRGQFIRRVEPGSPAEAAALRAGDRLVEVNGVNVEGETHHQVVQRIKAVEGQTRLLVVDQETDEELRRRQLTCTEEMAQRGLPPAHDPWEPKPDWAHTGSHSSEAGKKDVSGPLRELRPRLCHLRKGPQGYGFNLHSDKSRPGQYIRSVDPGSPAARSGLRAQDRLIEVNGQNVEGLRHAEVVASIKAREDEARLLVVDPETDEHFKRLRVTPTEEHVEGPLPSPVTNGTSPAQLNGGSACSSRSDLPGSDKDTEDGSAWKQDPFQESGLHLSPTAAEAKEKARAMRVNKRAPQMDWNRKREIFSNF
B2 was tested, and the “half-life of dissociation from ezrin FERM beads” value was roughly 16 min.
